Target: GFP-tagged Y822F vinculin (chicken), expressed in 4T1 vinculin-knockout cells (chicken) (UniProt P12003)
Test: co-IP; GFP or GFP-tagged vinculins immunoprecipitated with GFP antibody and protein A/G agarose from lysates of 4T1 vinculin-knockout cells (EB or RIPA buffer), reducing SDS-PAGE, immunoblot for talin, paxillin or β-actin; in one panel cells pre-treated with 10 mM NAC for 1 h (paxillin with Y822C reduced, not significantly changed with wild type and Y822F)

Sequence of UniProt P12003 (P12003 whole entry Y822F): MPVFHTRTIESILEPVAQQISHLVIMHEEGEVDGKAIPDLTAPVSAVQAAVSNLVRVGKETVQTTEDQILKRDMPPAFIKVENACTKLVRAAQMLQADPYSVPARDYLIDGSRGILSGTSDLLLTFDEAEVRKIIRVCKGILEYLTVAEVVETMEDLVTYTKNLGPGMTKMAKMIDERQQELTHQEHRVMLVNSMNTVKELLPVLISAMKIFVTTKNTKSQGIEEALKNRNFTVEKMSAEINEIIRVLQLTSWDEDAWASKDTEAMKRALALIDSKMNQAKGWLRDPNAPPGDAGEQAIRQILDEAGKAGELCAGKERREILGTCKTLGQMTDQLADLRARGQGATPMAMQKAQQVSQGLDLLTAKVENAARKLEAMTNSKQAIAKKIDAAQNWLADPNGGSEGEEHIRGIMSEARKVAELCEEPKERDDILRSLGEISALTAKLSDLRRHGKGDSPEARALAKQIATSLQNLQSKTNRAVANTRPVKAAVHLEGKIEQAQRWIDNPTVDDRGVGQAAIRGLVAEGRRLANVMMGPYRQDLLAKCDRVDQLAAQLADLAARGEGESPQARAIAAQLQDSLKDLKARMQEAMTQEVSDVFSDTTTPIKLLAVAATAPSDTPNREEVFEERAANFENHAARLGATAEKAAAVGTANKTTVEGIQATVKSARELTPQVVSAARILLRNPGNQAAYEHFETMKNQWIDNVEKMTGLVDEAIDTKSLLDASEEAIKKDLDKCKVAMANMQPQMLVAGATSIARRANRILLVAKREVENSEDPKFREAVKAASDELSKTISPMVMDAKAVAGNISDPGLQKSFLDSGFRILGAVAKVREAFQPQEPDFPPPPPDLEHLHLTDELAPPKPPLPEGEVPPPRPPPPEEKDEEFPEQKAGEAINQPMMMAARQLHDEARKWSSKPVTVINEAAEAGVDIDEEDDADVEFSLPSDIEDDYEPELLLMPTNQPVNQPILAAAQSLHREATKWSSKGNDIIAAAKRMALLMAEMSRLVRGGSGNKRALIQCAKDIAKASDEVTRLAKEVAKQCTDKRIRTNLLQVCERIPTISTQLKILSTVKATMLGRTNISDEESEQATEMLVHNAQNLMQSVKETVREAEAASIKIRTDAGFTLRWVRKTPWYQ

In the case of “talin (endogenous in 4T1 cells; the paper's 'talin' refers collectively to talin 1 and 2) (from UniProt P26039 1-2541) (natural protein)”, the fold less talin recovered than with T12 vinculin is reported as 390 fold.
